Reference: patent US20160230155A1

target: M6P receptors expressed on MEF-1 fibroblasts; experiment: cell-based or functional assay

receptor mediated endocytosis in MEF-1 cells: specific activity in cell homogenate relative to unmodified recombinant sulfamidase (% of unmodified recombinant sulfamidase) | Binder
< 10 | sulfamidase (SEQ ID NO:2) chemically modified according to the known method (WO 2008/109677): 20 mM sodium meta-periodate 0 °C 6.5 h, dialysis, 100 mM sodium … (enzyme, N-glycans at N(21), N(131), N(244), N(393) of SEQ ID NO:1 disrupted by periodate oxidation and borohydride reduction; FGly50 about 56% converted to Ser50; methionine 184 and methionine 443 almost completely oxidized) GSRPRNALLLLADDGGFESGAYNNSAIATPHLDALARRSLLFRNAFTSVSSCSPSRASLLTGLPQHQNGMYGLHQDVHHFNSFDKVRSLPLLLSQAGVRTGIIGKKHVGPETVYPFDFAYTEENGSVLQVGRNITRIKLLVRKFLQTQDDRPFFLYVAFHDPHRCGHSQPQYGTFCEKFGNGESGMGRIPDWTPQAYDPLDVLVPYFVPNTPAARADLAAQYTTVGRMDQGVGLVLQELRDAGVLNDTLVIFTSDNGIPFPSGRTNLYWPGTAEPLLVSSPEHPKRWGQVSEAYVSLLDLTPTILDWFSIPYPSYAIFGSKTIHLTGRSLLPALEAEPLWATVFGSQSHHEVTMSYPMRSVQHRHFRLVHNLNFKMPFPIDQDFYVSPTFQDLLNRTTAGQPTGWYKDLRHYYYRARWELYDRSRDPHETQNLATDPRFAQLLEMLRDQLAKWQWETHDPWVCAPDGVLEEKLSPQCQPLHNEL
< 10 | sulfamidase (SEQ ID NO:2) chemically modified according to new method 2: 20 mM sodium meta-periodate 0 °C 120 min, 10 mM sodium borohydride 0 °C 120 min (enzyme, N-glycans of SEQ ID NO:1 sites disrupted by periodate oxidation and borohydride reduction; FGly50 about 11.5% converted to Ser50) GSRPRNALLLLADDGGFESGAYNNSAIATPHLDALARRSLLFRNAFTSVSSCSPSRASLLTGLPQHQNGMYGLHQDVHHFNSFDKVRSLPLLLSQAGVRTGIIGKKHVGPETVYPFDFAYTEENGSVLQVGRNITRIKLLVRKFLQTQDDRPFFLYVAFHDPHRCGHSQPQYGTFCEKFGNGESGMGRIPDWTPQAYDPLDVLVPYFVPNTPAARADLAAQYTTVGRMDQGVGLVLQELRDAGVLNDTLVIFTSDNGIPFPSGRTNLYWPGTAEPLLVSSPEHPKRWGQVSEAYVSLLDLTPTILDWFSIPYPSYAIFGSKTIHLTGRSLLPALEAEPLWATVFGSQSHHEVTMSYPMRSVQHRHFRLVHNLNFKMPFPIDQDFYVSPTFQDLLNRTTAGQPTGWYKDLRHYYYRARWELYDRSRDPHETQNLATDPRFAQLLEMLRDQLAKWQWETHDPWVCAPDGVLEEKLSPQCQPLHNEL
< 10 | sulfamidase (SEQ ID NO:2) chemically modified according to new method 1: 20 mM sodium meta-periodate 0 °C 120 min, 50 mM sodium borohydride 0 °C 120 min (enzyme, N-glycans at N(21), N(131), N(244), N(393) of SEQ ID NO:1 disrupted by periodate oxidation and borohydride reduction; FGly50 about 45% converted to Ser50) GSRPRNALLLLADDGGFESGAYNNSAIATPHLDALARRSLLFRNAFTSVSSCSPSRASLLTGLPQHQNGMYGLHQDVHHFNSFDKVRSLPLLLSQAGVRTGIIGKKHVGPETVYPFDFAYTEENGSVLQVGRNITRIKLLVRKFLQTQDDRPFFLYVAFHDPHRCGHSQPQYGTFCEKFGNGESGMGRIPDWTPQAYDPLDVLVPYFVPNTPAARADLAAQYTTVGRMDQGVGLVLQELRDAGVLNDTLVIFTSDNGIPFPSGRTNLYWPGTAEPLLVSSPEHPKRWGQVSEAYVSLLDLTPTILDWFSIPYPSYAIFGSKTIHLTGRSLLPALEAEPLWATVFGSQSHHEVTMSYPMRSVQHRHFRLVHNLNFKMPFPIDQDFYVSPTFQDLLNRTTAGQPTGWYKDLRHYYYRARWELYDRSRDPHETQNLATDPRFAQLLEMLRDQLAKWQWETHDPWVCAPDGVLEEKLSPQCQPLHNEL
